For the experiment, the system named is LFA-1 (αLβ2). In words: Steady-state in-solution FRET binding assay (Alexa Fluor 488-LFA-1 donor / Alexa Fluor 555-D1-D2-Fc acceptor) to determine Kd. On the set-up: species or system human. The protocol:
In determining the equilibrium dissociation constant (Kd) between the interacting protein pairs, LFA-1 and D1-D2-Fc, from the FRET binding assay, several concentrations of the acceptor conjugate, Alexa Fluor 555-D1-D2-Fc, were added to a fixed concentration of the donor conjugate, Alexa Fluor 488-LFA-1. The donor conjugate concentration was kept constant at 100 nM while the acceptor conjugate concentration was varied from 0 upto 1.6 µM. These FRET mixtures, with different donor-to-acceptor ratios, were excited by 470 and 530 nm. […] The peak intensity at 570 nm has contributions from unquenched donor emissions, direct acceptor emission and the emission of acceptor due to FRET (FFRET). However, when the FRET mixture was excited with 530 nm, only a single peak corresponding to the direct emission of the acceptor (FA) was observed.
Thus, to obtain the absolute maximum FRET emission signal at 570 nm (FFRETmax), we need to quantify each contribution from the donor and acceptor emissions as well as the FRET emission signal (FFRET). […]
In general, the direct emission of Alexa Fluor 488-LFA-1 at 570 nm is expected to be proportional to its emission at 520 nm when excited at 470 nm. […] The calculated value of “b” was 0.101±0.008. […]

B1: D1-D2-Fc: chimeric molecule consisting of the amino-terminal first two Ig domains of human ICAM-1 (D1-D2) fused to IgG1 Fc region (protein)
chain: QTSVSPSKVILPRGGSVLVTCSTSCDQPKLLGIETPLPKKELLLPGNNRKVYELSNVQEDSQPMCYSNCPDGQSTAKTFLTVYWTPERVELAPLPSWQPVGKNLTLRCQVEGGAPRANLTVVLLRGEKELKREPAVGEPAEVTTTVLVRRDHHGANFSCRTELDLRPQGLELFENTSAPYQLQTFVLPATPPQLVSPRVLEVDTQGTVVCSLDGLFPVSEAQVHLALGDQRLNPTVTYGNDSFSAKASVSVTAEDEGTQRLTCAVILGNQSQETLQTVTIYSFPAPNVILTKPEVSEGTEVTVKCEAHPRAKVTLNGVPAQPLGPRAQLLLKATPEDNGRSFSCSATLEVAGQLIHKNQTRELRVLYGPRLDERDCPGNWTWPENSQQTPMCQAWGNPLPELKCLKDGTFPLPIGESVTVTRDLEGTYLCRARSTQGEVTRKVTVNVLSPRYEIVIITVVAAAVIMGTAGLSTYLYNRQRKIKKYRLQQAQKGTPMKPNTQATPP
modifications: Alexa Fluor 555 (succinimidyl ester) on amine groups (amine terminus, ε-amino groups of lysines), random; F/P molar ratio 3.14±0.27; left off: Fc (IgG1), end not stated, kept
notes: chimeric molecule consisting of the amino-terminal first two Ig domains of human ICAM-1 (D1-D2) fused to IgG1 Fc region
As for B1, where the note is “at 570 nm, 100 nM Alexa Fluor 488-LFA-1, Alexa Fluor 555-D1-D2-Fc 0 to 1.6 µM, fit of Eq. (6), adj. R-square = 0.9895”, the “maximum FRET emission signal (FFRETmax)” value is listed as 6.33×10^3 RFU. Besides, the Kd (steady-state FRET, 100 nM Alexa Fluor 488-LFA-1 fixed, Alexa Fluor 555-D1-D2-Fc 0 to 1.6 µM, PBS, pH 7.4, 1 mM EGTA, 2 mM Mg^2+, 50 µl, 96-well plate, excitation 470 nm, emission 520/570 nm, nonlinear fit Eq. (6), one-to-one, data points mean (rms) of 9 measurements, 3 samples, read-out: dissociation constant (Kd) of the LFA-1/D1-D2-Fc interaction) worked out at 0.0179 ± 0.00134 µM.
